This passage reports IC50 results from the Immune Epitope Database (IEDB).

The target of one test is HLA-B*53:01. The test can be described thus: IEDB peptide-MHC binding, purified MHC/competitive/radioactivity; ≥ and ≤ were set here for values at or beyond the usual limits of such assays. As to conditions: source organism: Bordetella pertussis.
LAAGAGLTL: the IC50 worked out at 58.7 µM.

As for VPVSEHCTV, the IC50 is 69.9 µM.

The target of a further test is HLA-B*07:02. The description is as above. The settings on record: source organism: Bordetella pertussis.
CFGKDLKRP: the IC50 was 69.6 µM. Same read-out and setting: next, RPQITDAVT: 16.3 µM; LAAGAGLTL: 7.38 µM; GIVIPPKAL: 69.6 µM. Regarding RTHGVGASL, the IC50 is 1.58 µM.

A further test has as its target HLA-B*35:01. Described as above. The settings on record: source organism: Bordetella pertussis.
Regarding APNALAWAL, the IC50 worked out at 6.26 µM. As for LFTQQGGAY, the IC50 worked out at 69.9 µM. With PDAHVPFCF, the IC50 was 69.9 µM.

The target of a further test is HLA-B*44:03. Described as above. The settings on record: source organism: Bordetella pertussis.
In the case of MESNKDIVI, the IC50 came out at 9.93 µM. The same measure, in the same setting: the result for GELMAAQVA reads 0.572 µM.

In the next test the target is HLA-A*02:01. The test is described as above. As to conditions: source organism: Bordetella pertussis.
With IVVEAGELV, the IC50 was determined as 9.86 µM. Consider WVMTDNSNV, for which the IC50 was 29.2 µM. Regarding RLRKMLYLI, the IC50 is 14.9 µM.

In the case of ITSYVGFSV, the concentration for half-maximal inhibition (IC50) was 4.39 µM.

What is called IC50 is the concentration needed to halve the response being measured.
